Values of other authors, collected in US20210265014A1, “METHOD AND ELECTRONIC SYSTEM FOR PREDICTING AT LEAST ONE FITNESS VALUE OF A PROTEIN VIA AN EXTENDED NUMERICAL SEQUENCE, RELATED COMPUTER PROGRAM PRODUCT” (PEACCEL, priority 2018, published 2021).

Biological target: T1, Glucagon like peptide-2 (GLP-2) receptor (Rattus norvegicus, UniProt Q9Z0W0)
T1 sequence (Q9Z0W0 1-550): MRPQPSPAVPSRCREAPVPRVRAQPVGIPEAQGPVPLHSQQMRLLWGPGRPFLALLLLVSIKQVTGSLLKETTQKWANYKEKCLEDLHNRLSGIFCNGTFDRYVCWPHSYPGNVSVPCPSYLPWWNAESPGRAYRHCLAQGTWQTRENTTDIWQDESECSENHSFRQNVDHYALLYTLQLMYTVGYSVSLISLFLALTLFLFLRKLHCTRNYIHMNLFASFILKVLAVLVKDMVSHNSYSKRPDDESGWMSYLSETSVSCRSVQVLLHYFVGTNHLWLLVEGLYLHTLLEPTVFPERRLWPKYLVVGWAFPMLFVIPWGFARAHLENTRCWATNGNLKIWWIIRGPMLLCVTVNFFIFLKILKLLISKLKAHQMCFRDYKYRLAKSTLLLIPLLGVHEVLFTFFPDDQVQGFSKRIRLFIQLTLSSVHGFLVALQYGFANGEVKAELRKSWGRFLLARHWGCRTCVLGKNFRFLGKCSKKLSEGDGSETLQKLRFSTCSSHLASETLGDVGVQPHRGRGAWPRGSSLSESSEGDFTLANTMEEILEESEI
Details: receptor activation, fold increase over basal cAMP production

Substance	fold-increase in cAMP [fold]
A2G: variant of Glucagon like peptide-2 (GLP-2) [Chimera A2G]	10.00
D3A: alanine variant of Glucagon like peptide-2 (GLP-2) (HAAGSFSDEMNTILDNLAARDFINWLIQTKITD; Glucagon-like peptide 2; UniProt P01275 146-178, looked up, variant D3A) [Chimera D3A]	1.02
D8A: alanine variant of Glucagon like peptide-2 (GLP-2) (HADGSFSAEMNTILDNLAARDFINWLIQTKITD; Glucagon-like peptide 2; UniProt P01275 146-178, looked up, variant D8A) [Chimera D8A]	7.53
D15A: alanine variant of Glucagon like peptide-2 (GLP-2) (HADGSFSDEMNTILANLAARDFINWLIQTKITD; Glucagon-like peptide 2; UniProt P01275 146-178, looked up, variant D15A) [Chimera D15A]	4.54
D21A: alanine variant of Glucagon like peptide-2 (GLP-2) (HADGSFSDEMNTILDNLAARAFINWLIQTKITD; Glucagon-like peptide 2; UniProt P01275 146-178, looked up, variant D21A) [Chimera D21A]	4.42
D33A: alanine variant of Glucagon like peptide-2 (GLP-2) (HADGSFSDEMNTILDNLAARDFINWLIQTKITA; Glucagon-like peptide 2; UniProt P01275 146-178, looked up, variant D33A) [Chimera D33A]	3.41
E9A: alanine variant of Glucagon like peptide-2 (GLP-2) (HADGSFSDAMNTILDNLAARDFINWLIQTKITD; Glucagon-like peptide 2; UniProt P01275 146-178, looked up, variant E9A) [Chimera E9A]	3.76
F6A: alanine variant of Glucagon like peptide-2 (GLP-2) (HADGSASDEMNTILDNLAARDFINWLIQTKITD; Glucagon-like peptide 2; UniProt P01275 146-178, looked up, variant F6A) [Chimera F6A]	1.67
F22A: alanine variant of Glucagon like peptide-2 (GLP-2) (HADGSFSDEMNTILDNLAARDAINWLIQTKITD; Glucagon-like peptide 2; UniProt P01275 146-178, looked up, variant F22A) [Chimera F22A]	1.61
G4A: alanine variant of Glucagon like peptide-2 (GLP-2) (HADASFSDEMNTILDNLAARDFINWLIQTKITD; Glucagon-like peptide 2; UniProt P01275 146-178, looked up, variant G4A) [Chimera G4A]	2.87
H1A: alanine variant of Glucagon like peptide-2 (GLP-2) (AADGSFSDEMNTILDNLAARDFINWLIQTKITD; Glucagon-like peptide 2; UniProt P01275 146-178, looked up, variant H1A) [Chimera H1A]	0.78
I13A: alanine variant of Glucagon like peptide-2 (GLP-2) (HADGSFSDEMNTALDNLAARDFINWLIQTKITD; Glucagon-like peptide 2; UniProt P01275 146-178, looked up, variant I13A) [Chimera I13A]	2.45
I23A: alanine variant of Glucagon like peptide-2 (GLP-2) (HADGSFSDEMNTILDNLAARDFANWLIQTKITD; Glucagon-like peptide 2; UniProt P01275 146-178, looked up, variant I23A) [Chimera I23A]	2.57
I27A: alanine variant of Glucagon like peptide-2 (GLP-2) (HADGSFSDEMNTILDNLAARDFINWLAQTKITD; Glucagon-like peptide 2; UniProt P01275 146-178, looked up, variant I27A) [Chimera I27A]	5.02
I31A: alanine variant of Glucagon like peptide-2 (GLP-2) (HADGSFSDEMNTILDNLAARDFINWLIQTKATD; Glucagon-like peptide 2; UniProt P01275 146-178, looked up, variant I31A) [Chimera I31A]	4.42
K30A: alanine variant of Glucagon like peptide-2 (GLP-2) (HADGSFSDEMNTILDNLAARDFINWLIQTAITD; Glucagon-like peptide 2; UniProt P01275 146-178, looked up, variant K30A) [Chimera K30A]	0.84

Substance	fold-increase in cAMP [fold]
L14A: alanine variant of Glucagon like peptide-2 (GLP-2) (HADGSFSDEMNTIADNLAARDFINWLIQTKITD; Glucagon-like peptide 2; UniProt P01275 146-178, looked up, variant L14A) [Chimera L14A]	2.03
L17A: alanine variant of Glucagon like peptide-2 (GLP-2) (HADGSFSDEMNTILDNAAARDFINWLIQTKITD; Glucagon-like peptide 2; UniProt P01275 146-178, looked up, variant L17A) [Chimera L17A]	1.02
L26A: alanine variant of Glucagon like peptide-2 (GLP-2) (HADGSFSDEMNTILDNLAARDFINWAIQTKITD; Glucagon-like peptide 2; UniProt P01275 146-178, looked up, variant L26A) [Chimera L26A]	2.33
M10A: alanine variant of Glucagon like peptide-2 (GLP-2) (HADGSFSDEANTILDNLAARDFINWLIQTKITD; Glucagon-like peptide 2; UniProt P01275 146-178, looked up, variant M10A) [Chimera M10A]	0.78
N11A: alanine variant of Glucagon like peptide-2 (GLP-2) (HADGSFSDEMATILDNLAARDFINWLIQTKITD; Glucagon-like peptide 2; UniProt P01275 146-178, looked up, variant N11A) [Chimera N11A]	7.65
N16A: alanine variant of Glucagon like peptide-2 (GLP-2) (HADGSFSDEMNTILDALAARDFINWLIQTKITD; Glucagon-like peptide 2; UniProt P01275 146-178, looked up, variant N16A) [Chimera N16A]	5.92
N24A: alanine variant of Glucagon like peptide-2 (GLP-2) (HADGSFSDEMNTILDNLAARDFIAWLIQTKITD; Glucagon-like peptide 2; UniProt P01275 146-178, looked up, variant N24A) [Chimera N24A]	10.00
Q28A: alanine variant of Glucagon like peptide-2 (GLP-2) (HADGSFSDEMNTILDNLAARDFINWLIATKITD; Glucagon-like peptide 2; UniProt P01275 146-178, looked up, variant Q28A) [Chimera Q28A]	5.80
R20A: alanine variant of Glucagon like peptide-2 (GLP-2) (HADGSFSDEMNTILDNLAAADFINWLIQTKITD; Glucagon-like peptide 2; UniProt P01275 146-178, looked up, variant R20A) [Chimera R20A]	3.94
S5A: alanine variant of Glucagon like peptide-2 (GLP-2) (HADGAFSDEMNTILDNLAARDFINWLIQTKITD; Glucagon-like peptide 2; UniProt P01275 146-178, looked up, variant S5A) [Chimera S5A]	4.00
S7A: alanine variant of Glucagon like peptide-2 (GLP-2) (HADGSFADEMNTILDNLAARDFINWLIQTKITD; Glucagon-like peptide 2; UniProt P01275 146-178, looked up, variant S7A) [Chimera S7A]	7.59
T12A: alanine variant of Glucagon like peptide-2 (GLP-2) (HADGSFSDEMNAILDNLAARDFINWLIQTKITD; Glucagon-like peptide 2; UniProt P01275 146-178, looked up, variant T12A) [Chimera T12A]	3.11
T29A: alanine variant of Glucagon like peptide-2 (GLP-2) (HADGSFSDEMNTILDNLAARDFINWLIQAKITD; Glucagon-like peptide 2; UniProt P01275 146-178, looked up, variant T29A) [Chimera T29A]	4.78
T32A: alanine variant of Glucagon like peptide-2 (GLP-2) (HADGSFSDEMNTILDNLAARDFINWLIQTKIAD; Glucagon-like peptide 2; UniProt P01275 146-178, looked up, variant T32A) [Chimera T32A]	0.84
W25A: alanine variant of Glucagon like peptide-2 (GLP-2) (HADGSFSDEMNTILDNLAARDFINALIQTKITD; Glucagon-like peptide 2; UniProt P01275 146-178, looked up, variant W25A) [Chimera W25A]	1.37
